Where a chain is given by its changes, count along the chain named. One block for each substance: values may come before it.
Key:
Test in all cases: cell-based or functional assay
MS1(I17G) = biological target: T1, MS1(I17G)
T1 sequence (peptide): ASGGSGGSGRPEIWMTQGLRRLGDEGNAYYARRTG

MS1(I17A) = biological target: T2, MS1(I17A)
T2 sequence (peptide): T1 sequence (peptide) with G26A

BAD(G) = biological target: T3, BAD(G)
T3 sequence (peptide): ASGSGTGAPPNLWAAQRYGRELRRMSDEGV

BAD(V) = biological target: T4, BAD(V)
T4 sequence (peptide): T3 sequence (peptide) with G29V

Bad(F) = biological target: T5, Bad(F)
T5 sequence (peptide): T3 sequence (peptide) with G29F

Bad(L) = biological target: T6, Bad(L)
T6 sequence (peptide): T3 sequence (peptide) with G29L

[1] = biological target: T7, BAD (N-terminal BAD peptide)
T7 sequence (peptide): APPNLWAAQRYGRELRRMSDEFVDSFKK

Bcl-TEV IRES iADAR = biological target: Bcl-TEV IRES iADAR

Sequence of Bcl-xL (Q07817 4-198 limits assumed): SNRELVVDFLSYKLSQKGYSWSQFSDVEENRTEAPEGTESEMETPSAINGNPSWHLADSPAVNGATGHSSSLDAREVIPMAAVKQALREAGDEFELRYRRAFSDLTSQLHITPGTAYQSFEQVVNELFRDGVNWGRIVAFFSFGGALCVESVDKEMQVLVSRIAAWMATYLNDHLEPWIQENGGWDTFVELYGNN
Sequence of Mcl-1 (Q07820 172-327 limits assumed): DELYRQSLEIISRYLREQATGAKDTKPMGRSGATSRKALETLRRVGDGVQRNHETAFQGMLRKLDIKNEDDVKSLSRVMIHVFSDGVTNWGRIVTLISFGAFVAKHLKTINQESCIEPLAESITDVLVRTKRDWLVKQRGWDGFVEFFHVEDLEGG

- fold change of mNeonGreen/mCherry with S63845, MS1(I17G)-Mcl1 ADAR with unmutated DD, HEK cells, microscopy (intramolecular pair) (MS1(I17G)): 2.8 fold
- fold change of mNeonGreen/mCherry with S63845, MS1(A)-Mcl1 ADAR with unmutated DD, HEK cells, microscopy (intramolecular pair) (MS1(I17A)): 12 fold
Substance: Mcl-1 (from UniProt Q07820 172-327)

- Fold Change, 1 µM against 0 µM A-1331852, HEK cells, flow cytometry (intramolecular pair) (BAD(G)): 9.65 fold
- median ratio of mNeonGreen to mCherry, 0 µM A-1331852, HEK cells, flow cytometry (intramolecular pair) (BAD(G)): 0.1
- median ratio of mNeonGreen to mCherry, 1 µM A-1331852, HEK cells, flow cytometry (intramolecular pair) (BAD(G)): 0.968
- Fold Change, 1 µM against 0 µM A-1331852, HEK cells, flow cytometry (intramolecular pair) (BAD(V)): 14.4 fold
- median ratio of mNeonGreen to mCherry, 0 µM A-1331852, HEK cells, flow cytometry (intramolecular pair) (BAD(V)): 0.0708
- median ratio of mNeonGreen to mCherry, 1 µM A-1331852, HEK cells, flow cytometry (intramolecular pair) (BAD(V)): 1.02
- Fold Change, 1 µM against 0 µM A-1331852, HEK cells, flow cytometry (intramolecular pair) (Bad(F)): 37 fold
- median ratio of mNeonGreen to mCherry, 0 µM A-1331852, HEK cells, flow cytometry (intramolecular pair) (Bad(F)): 0.026
- median ratio of mNeonGreen to mCherry, 1 µM A-1331852, HEK cells, flow cytometry (intramolecular pair) (Bad(F)): 0.962
- Fold Change, 1 µM against 0 µM A-1331852, HEK cells, flow cytometry (intramolecular pair) (Bad(L)): 23.2 fold
- median ratio of mNeonGreen to mCherry, 0 µM A-1331852, HEK cells, flow cytometry (intramolecular pair) (Bad(L)): 0.0389
- median ratio of mNeonGreen to mCherry, 1 µM A-1331852, HEK cells, flow cytometry (intramolecular pair) (Bad(L)): 0.903
- fold change of mNeonGreen/mCherry with A-1331852, nBAD-ADAR-cBcl-xL with unmutated DD, HEK cells, microscopy (intramolecular pair) [1]: 5.9 fold
Substance: Bcl-xL (from UniProt Q07817 4-198)

Substance: TEV Protease (from UniProt P04517 2038-2271) (enzyme)
- fold change of the mean RFU (mNeonGreen-to-mCherry), TEV protease against filler DNA, single-transcript IRES-iADAR, HEK cells, microscopy (Bcl-TEV IRES iADAR): 17 fold
- fold change of the mean RFU (mNeonGreen-to-mCherry), dual addition of A-1331852 and TEV protease, single-transcript IRES-iADAR, HEK cells, microscopy (Bcl-TEV IRES iADAR): 32 fold

Source: patent US20240263193A1
